In US20250179143A1, “SYSTEMS AND METHODS FOR CHAPERONE-MEDIATED LIGAND EXCHANGE ON MHC-I AND MHC-RELATED MOLECULES USING CHICKEN TAPBPR” (priority 2022, published 2025) one finds MFI ratio and Kd data, which are given here for two molecules.

For experiment [1], the target named is 96 HLA-I allotypes on single antigen beads (SABs). The experiment is described as follows: SAB tetramer assay, ratio to W6/32 control.
For experiment [2], the target named is peptide-deficient (empty) HLA-B*37:01/hb2m (human). Put plainly: SPR, TAPBPR-biotin on streptavidin chip, UV-irradiated (empty) HLA as analyte. Particulars: remark: other sources report otherwise.

A value given as a limit tells only on which side of the number the result lay.

B1: mouse TAPBPR luminal domain (moTAPBPR) (protein, UniProt Q8VD31 21-412, looked up)
chain: TDPPTAPTTAERQRQPTDIILDCFLVTEDRHRGAFASSGDRERALLVLKQVPVLDDGSLEGITDFQGSTETKQDSPVIFEASVDLVQIPQAEALLHADCSGKAVTCEISKYFLQARQEATFEKAHWFISNMQVSRGGPSVSMVMKTLRDAEVGAVRHPTLNLPLSAQGTVKTQVEFQVTSETQTLNHLLGSSVSLHCSFSMAPGLDLTGVEWRLQHKGSGQLVYSWKTGQGQAKRKGATLEPEELLRAGNASLTLPNLTLKDEGNYICQISTSLYQAQQIMPLNILAPPKIQLHLANKDPLPSLVCSIAGYYPLDVGVTWIREELGGIPAQVSGASFSSLRQSTMGTYSISSTVMADPGPTGATYTCQVAHVSLEEPLTTSMRVLPNPEQRG
For B1, in experiment [1], the MFI ratio was under 5.8.

B2: human TAPBPR luminal domain (hTAPBPR), Q9BX59 22-405 (protein)
chain: KPHPAEGQWRAVDVVLDCFLAKDGAHRGALASSEDRARASLVLKQVPVLDDGSLEDFTDFQGGTLAQDDPPIIFEASVDLVQIPQAEALLHADCSGKEVTCEISRYFLQMTETTVKTAAWFMANMQVSGGGPSISLVMKTPRVTKNEALWHPTLNLPLSPQGTVRTAVEFQVMTQTQSLSFLLGSSASLDCGFSMAPGLDLISVEWRLQHKGRGQLVYSWTAGQGQAVRKGATLEPAQLGMARDASLTLPGLTIQDEGTYICQITTSLYRAQQIIQLNIQASPKVRLSLANEALLPTLICDIAGYYPLDVVVTWTREELGGSPAQVSGASFSSLRQSVAGTYSISSSLTAEPGSAGATYTCQVTHISLEEPLGASTQVVPPERR
With B2, in experiment [2], the Kd (usually the free concentration of one partner at which half of the binding sites on the other are occupied at equilibrium, for simple one-to-one binding) is 7.02 µM.
